According to publication PMC5986797 (2018):

T1: laminin peptide LAMA5_(3539–3550) (Homo sapiens (Human), UniProt O15230)
T1 chain: TLPDVGLELEVR

T2: laminin peptide LAMA5_(3300–3330) (Homo sapiens (Human), UniProt O15230)
T2 chain: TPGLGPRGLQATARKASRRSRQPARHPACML

T3: laminin peptide LAMA4_(1408–1434) (Homo sapiens (Human), UniProt Q16363)
T3 chain: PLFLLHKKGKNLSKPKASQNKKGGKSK

T4: laminin peptide LAMA5_(3417–3436) (Homo sapiens (Human), UniProt O15230)
T4 chain: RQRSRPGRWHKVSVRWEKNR

T5: laminin peptide LAMA3_(3043–3067) (Homo sapiens (Human), UniProt Q16787)
T5 chain: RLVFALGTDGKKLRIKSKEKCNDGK

T6: laminin peptide LAMA4_(1521–1543) (Homo sapiens (Human), UniProt Q16363)
T6 chain: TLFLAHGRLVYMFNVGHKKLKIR

B1: recombinant human syndecan-4 (protein)
chain: ESIRETEVIDPQDLLEGRYFSGALPDDEDVVGPGQESDDFELSGSGDLDDLEDSMIGPEVVHPLVPLDNHIPERAGSGSQVPTEPKKLEENEVIPKRISPVEESEDVSNKVSMSSTVQGSNIFERTE
B2: recombinant human syndecan-1 (protein)
chain: QIVATNLPPEDQDGSGDDSDNFSGSGAGALQDITLSQQTPSTWKDTQLLTAIPTSPEPTGLEATAASTSTLPAGEGPKEGEAVVLPEVEPGLTAREQEATPRPRETTQLPTTHLASTTTATTAQEPATSHPHRDMQPGHHETSTPAGPSQADLHTPHTEDGGPSATERAAEDGASSQLPAAEGSGEQDFTFETSGENTAVVAVEPDRRNQSPVDQGATGASQGLLDRKEVLG
B3: recombinant human syndecan-2 (protein)
chain: ESRAELTSDKDMYLDNSSIEEASGVYPIDDDDYASASGSGADEDVESPELTTSRPLPKILLTSAAPKVETTTLNIQNKIPAQTKSPEETDKEKVHLSDSERKMDPAEEDTNVYTEKHSDSLFKRTE

Biological target: T1, laminin peptide LAMA5_(3539–3550)
Assay: ELISA

Row | binding result | Binder
1 | no binding | B1
2 | no binding | B2
3 | no binding | B3

Biological target: T2, laminin peptide LAMA5_(3300–3330)
Assay: ELISA

Row | binding result | Binder
4 | binds | B1
5 | binds | B2
6 | binds | B3

Biological target: T3, laminin peptide LAMA4_(1408–1434)
Assay: ELISA

Row | binding result | Binder
7 | binds | B1
8 | binds | B2
9 | binds | B3

Biological target: T4, laminin peptide LAMA5_(3417–3436)
Assay: ELISA

Row | binding result | Binder
10 | binds | B1
11 | binds | B2
12 | binds | B3

Biological target: T5, laminin peptide LAMA3_(3043–3067)
Assay: ELISA

Row | binding result | Binder
13 | binds | B1
14 | binds | B2
15 | binds | B3

Biological target: T6, laminin peptide LAMA4_(1521–1543)
Assay: ELISA

Row | binding result | Binder
16 | binds | B1
17 | binds | B2
18 | binds | B3
